Laboratory results from patent publication US20100310463A1 (AFFITECH RESEARCH, published 2010).
Positions count from the first letter of the chain named. Each block holds one binder with its values, some of them ahead of it.

Key:
human EpCAM-Fc [1] = target: T1, human EpCAM-Fc (human, UniProt P16422 24-265); assay: ELISA, plate coated with human EpCAM-Fc at 1 µg/ml, goat anti-human kappa-HRP, ABTS, Abs 405 nm
T1 construct: extracellular domain; also called human EpCAM/Fc fusion; recombinant human EpCAM antigen; not shown: human Fc region from IgG1; limits not readable
T1 sequence (looked up): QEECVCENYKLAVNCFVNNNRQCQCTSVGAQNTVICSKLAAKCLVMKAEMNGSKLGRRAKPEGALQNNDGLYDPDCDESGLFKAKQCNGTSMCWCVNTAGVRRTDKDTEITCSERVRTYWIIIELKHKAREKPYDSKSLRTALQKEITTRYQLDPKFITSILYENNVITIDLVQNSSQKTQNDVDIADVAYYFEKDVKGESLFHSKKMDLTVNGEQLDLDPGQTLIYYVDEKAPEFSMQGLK
Protocol: (§1) For ELISA of antibodies in IgG format, the MAXI-sorb plate was coated with 1 μg/ml (100 μl per well) of human or cynomolgus EpCAM-Fc in PBS overnight at 4° C. The plates were blocked with 3% BSA in PBS for 2 hrs. The IgGs to be tested were added in 2-fold dilutions from 133 nM to 32 fM and incubated for 1 hr at room temperature. For detection of bound IgG, a goat anti-human kappa-HRP antibody (Southern Biotech, cat no 2060-05) was added in 1:5000 dilution in block solution and incubated for 1 hr at room temperature.
(§2) The ELISA of antibodies in IgG format was developed using a 1-step ABTS Kit (Thermo Scientific prod #37615) and a 25 min incubation time. The absorbance was measured on a SLT SPECTRA plate reader. The software Prism (GraphPad, San Diego, Calif.) was used to estimate the affinities using a non-linear fit of one-site model on the retrieved ELISA data.

[2] = target: T2, EpCAM on the surface of EpCAM-positive tumor cell lines (UniProt P16422 24-314, limits assumed); assay: cell-based or functional assay
T2 sequence (looked up): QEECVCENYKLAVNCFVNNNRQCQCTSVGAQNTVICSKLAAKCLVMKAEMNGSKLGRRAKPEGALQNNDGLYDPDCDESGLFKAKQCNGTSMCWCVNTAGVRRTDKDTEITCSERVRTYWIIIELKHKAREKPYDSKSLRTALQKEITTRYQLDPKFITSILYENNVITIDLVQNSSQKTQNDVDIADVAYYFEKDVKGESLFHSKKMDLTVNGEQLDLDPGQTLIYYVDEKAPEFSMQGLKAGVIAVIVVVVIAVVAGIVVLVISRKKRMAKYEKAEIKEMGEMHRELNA

[3] = target: T2, EpCAM on the surface of EpCAM-positive …; assay: flow cytometry on Kato III cells, RPE goat anti-human IgG detection, median fluorescence intensity
Protocol: Flow cytometric analysis was performed to analyze binding of the 3-17I IgG to EpCAM-positive cells. As positive controls, anti-EpCAM chimeric (mouse variable/human constant domains) and fully human antibodies, MOC31 and MT201, respectively, were used.
The anti-green fluorescent protein (GFP) antibody was used as a negative control. For flow cytometry, Kato III cells (ATCC number (gastric carcinoma, ATCC number HTB-103)) were grown under standard conditions, harvested from the culture flasks, washed 2 times with PBS, re-suspended in PBS with 0.2% BSA and 0.09% NaN₃ and finally distributed at 1×10⁵ cells per well into V-shaped 96-well plates (Greiner Bio-One, Frickenhausen, Germany). Cells were centrifuged at 400×g for 5 min and then incubated at 4° C. for 45 min with 50 μL of each different antibody dilution (all dilutions made in PBS with 0.2% BSA and 0.09% NaN₃). After washing in PBS with 0.2% BSA and 0.09% NaN₃, the cells were stained with 10 μg/mL of RPE-conjugated goat anti-human IgG (AbDSerotec, Düsseldorf, Germany) for 30 min at 4° C. The stained cells were washed, re-suspended in 200 μL PBS with 0.2% BSA and 0.09% NaN₃ and transferred to a U-shaped 96-well plate (Corning, Schiphol-Rijk, The Netherlands) for analysis on EasyCyte flow cytometer (Guava Technologies, Hayward, Calif., USA).

cynomolgus EpCAM-Fc = target: T3, cynomolgus EpCAM-Fc (cynomolgus; human, UniProt P01857 99-330 = IgG part); assay: ELISA, plate coated with cynomolgus EpCAM-Fc at 1 µg/ml, goat anti-human kappa-HRP, ABTS, Abs 405 nm
T3 construct: also called Cynomolgus EpCAM/Fc fusion; recombinant cynomolgus EpCAM antigen
Protocol: as §1, §2

human EpCAM-Fc [4] = target: T1, human EpCAM-Fc; assay: SPR, BIAcore T100, EpCAM-Fc coupled to CM5 chip (100 RU), 37 °C, 1:1 Langmuir model; SPR (BIAcore T100), 37 C, native EpCAM-Fc on the CM5 chip
Protocol: Binding of 3-17I to human and cynomolgus monkey EpCAM was analyzed using surface plasmon resonance (SPR) on a BIAcore T100 (BIAcore, Inc, Piscataway, N.J.). The extracellular domains of human or cynomolgus monkey EpCAM fused to human Fc (IgG1), were coupled to a CM5 chip (BIAcore, Inc, Piscataway, N.J.) at density of 100 RU. The SPR studies were performed using standard techniques at 37° C. with a flow rate of 50 μl/min. The data were analyzed using the 1:1 Langmuir binding model of the BIAcore software.

human EpCAM-Fc [5] = target: T1, human EpCAM-Fc; assay: ELISA, plate coated with human EpCAM-Fc at 5 µg/ml, scFv detected with mouse anti-cMyc 9E10 and rabbit anti-mouse-HRP, TMB, Abs 450 nm
Protocol: FIGS. 10A and 10B show ELISA binding analysis of 3-17I scFv, 7-F17 scFv, 17-C20 scFv and 24-G6 scFv to human EpCAM-Fc (FIG. 10A) and to cynomolgus EpCAM-Fc (FIG. 10B). MAXI-Sorb plates were coated with human or cynomolgus EpCAM-Fc at a concentration of 5 μg/ml. The antibody was added in 2-fold dilutions from 667 nM to 3.2 nM.
For ELISA of antibodies in scFv format, the MAXI-sorb plate was coated with 5 μg/ml (100 μl per well) of human or cynomolgus EpCAM-Fc in PBS overnight at 4° C. The plates were blocked with 4% skimmed milk (Merck product no 1.15363.0500) in PBS for 2 hrs. […] For detection of bound scFv, a rabbit anti-mouse-HRP antibody (Dako, cat no P0260) was added in 1:3000 dilution in block solution and incubated for 1 hr at room temperature.

T3 sequence (P01857 other isoform, or with tags, fused parts or gaps limits assumed, form in doubt): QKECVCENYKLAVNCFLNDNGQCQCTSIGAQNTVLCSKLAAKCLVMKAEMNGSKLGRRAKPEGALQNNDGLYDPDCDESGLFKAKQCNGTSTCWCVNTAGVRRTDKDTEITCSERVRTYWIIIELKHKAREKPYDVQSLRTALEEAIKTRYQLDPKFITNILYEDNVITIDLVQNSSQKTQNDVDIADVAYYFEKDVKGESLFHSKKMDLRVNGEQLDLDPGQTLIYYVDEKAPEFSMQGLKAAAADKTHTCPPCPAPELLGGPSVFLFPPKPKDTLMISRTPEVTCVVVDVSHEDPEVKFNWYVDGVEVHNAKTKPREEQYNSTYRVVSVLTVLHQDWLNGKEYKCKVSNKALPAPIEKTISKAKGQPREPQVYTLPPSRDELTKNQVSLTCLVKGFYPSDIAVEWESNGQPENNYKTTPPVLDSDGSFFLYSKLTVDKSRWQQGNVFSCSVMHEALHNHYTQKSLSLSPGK

binding result (human EpCAM-Fc [1]): binds
B1: 17-C20 IgG (antibody, V domains shown)
VH: QVQLVQSGAEVKKPGSSVKVSCKASGGTFSSYAISWVRQAPGQGLEWMGGIIPIFGTANYAQKFQGRVTITADESTSTAYMELSSLRSEDTAVYYCARGLLWNYWGQGTLVTVSS
VL: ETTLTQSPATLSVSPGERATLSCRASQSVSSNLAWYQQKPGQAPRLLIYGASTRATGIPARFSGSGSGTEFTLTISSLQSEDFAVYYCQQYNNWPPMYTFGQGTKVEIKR
notes: also called 17-C20 full length IgG

ADCC EC50, BT-474 cells, human PBMC, E:T 20:1 [2]: 0.12 ng/mL
ADCC EC50, MDA-MB-231 cells, human PBMC, E:T 20:1 [2]: 15 ng/mL
ADCC EC50, MDA-MB-453 cells, human PBMC, E:T 20:1 [2]: 0.08 ng/mL
CDC EC50, KATO III cells, human serum [2]: 0.28 ng/mL
CDC EC50, MT-3 cells, human serum [2]: 0.38 ng/mL
EC50 (read off the curve) (human EpCAM-Fc [1]): ~0.7 nM
EC50 (read off the curve) [3]: ~100 ng/mL
EC50 (read off the curve) (cynomolgus EpCAM-Fc): ~0.6 nM
Kd (human EpCAM-Fc [4]): 1 nM
koff (human EpCAM-Fc [4]): 0.03 s⁻¹
kon (human EpCAM-Fc [4]): 3e+07 M⁻¹ s⁻¹
B2: 3-17I IgG (antibody, V domains shown)
VH: B1 VH
VL: EIVMTQSPATLSVSPGERATLSCRASQSVSSNLAWYQQKPGQAPRLIIYGASTTASGIPARFSASGSGTDFTLTISSLQSEDFAVYYCQQYNNWPPAYTFGQGTKLEIKR
notes: also called 3-17I full length IgG

binding result (human EpCAM-Fc [1]): binds
B3: 16-G5 IgG (antibody, V domains shown)
VH: B1 VH
VL: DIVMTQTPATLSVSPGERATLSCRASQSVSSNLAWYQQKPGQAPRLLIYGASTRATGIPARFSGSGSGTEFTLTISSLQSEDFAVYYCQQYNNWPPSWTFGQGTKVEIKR
notes: also called 16-G5 full length IgG

binding result (human EpCAM-Fc [1]): binds
B4: 12-C15 IgG (antibody, V domains shown)
VH: B1 VH
VL: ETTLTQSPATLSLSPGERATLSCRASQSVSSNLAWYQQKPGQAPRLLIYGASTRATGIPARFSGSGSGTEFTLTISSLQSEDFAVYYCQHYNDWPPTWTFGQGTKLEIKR
notes: also called 12-C15 full length IgG

binding result (human EpCAM-Fc [5]): binds
B5: 3-17I scFv (scFv)
scFv: QVQLVQSGAEVKKPGSSVKVSCKASGGTFSSYAISWVRQAPGQGLEWMGGIIPIFGTANYAQKFQGRVTITADESTSTAYMELSSLRSEDTAVYYCARGLLWNYWGQGTLVTVSSKLSGSASAPKLEEGEFSEARVEIVMTQSPATLSVSPGERATLSCRASQSVSSNLAWYQQKPGQAPRLIIYGASTTASGIPARFSASGSGTDFTLTISSLQSEDFAVYYCQQYNNWPPAYTFGQGTKLEIK
notes: expressed in E. coli TG1 from pHOG21; also called scFv format of 3-17I; not shown: C-terminal c-myc and His6 tags from pHOG21, with their junction residues

EC50 (read off the curve) (human EpCAM-Fc [1]): ~1 nM
EC50 (read off the curve) [3]: ~300 ng/mL
B6: MOC31 IgG (antibody, V domains shown)
VH: QVKLQQSGPELKKPGETVKISCKASGYTFTNYGMNWVKQAPGKGLKWMGWINTYTGESTYADDFKGRFAFSLETSASAAYLQINNLKNEDTATYFCARFAIKGDYWGQGTTVTVSS
VL: DIVLTQSPFSNPVTLGTSASISCRSTKSLLHSNGITYLYWYLQKPGQSPQLLIYQMSNLASGVPDRFSSSGSGTDFTLRISRVEAEDVGVYYCAQNLEIPRTFGGGTKLEIK

binding result (human EpCAM-Fc [5]): binds
B7: 7-F17 scFv (scFv)
scFv: QVQLVQSGAEVKKPGSSVKVSCKASGGTFSSYAISWVRQAPGQGLEWMGGIIPIFGTANYAQKFQGRVTITADESTSTAYMELSSLRSEDTAVYYCARGLLWNYWGQGTLVTVSSKLSGSASAPKLEEGEFSEARVETTLTQSPATLSVSPGERATLSCRASQSVSSNLAWYQQKPGQAPRLLIYGASTRATGIPARFSGSGSGTEFTLTISSLQSEDFAVYYCQQYNNWPPGFTFGPGTKVDIK

binding result (human EpCAM-Fc [5]): binds
B8: 24-G6 scFv (scFv)
scFv: B7 scFv with Q226K, G233A

binding result (human EpCAM-Fc [5]): binds
B9: 17-C20 scFv (scFv)
scFv: B7 scFv with G233M, F234Y, P238Q, D243E

ADCC EC50, BT-474 cells, human PBMC, E:T 20:1 [2]: 382 ng/mL
ADCC EC50, MDA-MB-453 cells, human PBMC, E:T 20:1 [2]: 7 ng/mL
CDC EC50, KATO III cells, human serum [2]: 76 ng/mL
CDC EC50, MT-3 cells, human serum [2]: 89 ng/mL
CDC: fold higher antibody concentration needed than for 3-17I IgG (ratio of the EC50 values; KATO III and MT-3 cells, human serum) [2]: 250 fold
B10: MT201 IgG (antibody, V domains shown)
VH: EVQLLESGGGVVQPGRSLRLSCAASGFTFSSYGMHWVRQAPGKGLEWVAVISYDGSNKYYADSVKGRFTISRDNSKNTLYLQMNSLRAEDTAVYYCAKDMGWGSGWRPYYYYGMDVWGQGTTVTVSS
VL: ELQMTQSPSSLSASVGDRVTITCRTSQSISSYLNWYQQKPGQPPKLLIYWASTRESGVPDRFSGSGSGTDFTLTISSLQPEDSATYYCQQSYDIPYTFGQGTKLEIK
